One may read the Kd as the concentration at which binding is half-saturated. Low readings indicate tighter binding, high ones weaker binding.

Assay [1] deals with T1, human GPR116 with C-terminal fused FLAG, stably overexpressed (human, UniProt Q8IZF2 22-1346).
T1 construct: human GPR116, recombined from the pEntry1a GPR116 plasmid into plenti6/V5 DEST; Same construct in two HEK293 lines; also called GPR116 OE; HEK293T GPR116 (human) OE cells; not shown: FLAG, C-terminal, kept
T1 sequence (looked up): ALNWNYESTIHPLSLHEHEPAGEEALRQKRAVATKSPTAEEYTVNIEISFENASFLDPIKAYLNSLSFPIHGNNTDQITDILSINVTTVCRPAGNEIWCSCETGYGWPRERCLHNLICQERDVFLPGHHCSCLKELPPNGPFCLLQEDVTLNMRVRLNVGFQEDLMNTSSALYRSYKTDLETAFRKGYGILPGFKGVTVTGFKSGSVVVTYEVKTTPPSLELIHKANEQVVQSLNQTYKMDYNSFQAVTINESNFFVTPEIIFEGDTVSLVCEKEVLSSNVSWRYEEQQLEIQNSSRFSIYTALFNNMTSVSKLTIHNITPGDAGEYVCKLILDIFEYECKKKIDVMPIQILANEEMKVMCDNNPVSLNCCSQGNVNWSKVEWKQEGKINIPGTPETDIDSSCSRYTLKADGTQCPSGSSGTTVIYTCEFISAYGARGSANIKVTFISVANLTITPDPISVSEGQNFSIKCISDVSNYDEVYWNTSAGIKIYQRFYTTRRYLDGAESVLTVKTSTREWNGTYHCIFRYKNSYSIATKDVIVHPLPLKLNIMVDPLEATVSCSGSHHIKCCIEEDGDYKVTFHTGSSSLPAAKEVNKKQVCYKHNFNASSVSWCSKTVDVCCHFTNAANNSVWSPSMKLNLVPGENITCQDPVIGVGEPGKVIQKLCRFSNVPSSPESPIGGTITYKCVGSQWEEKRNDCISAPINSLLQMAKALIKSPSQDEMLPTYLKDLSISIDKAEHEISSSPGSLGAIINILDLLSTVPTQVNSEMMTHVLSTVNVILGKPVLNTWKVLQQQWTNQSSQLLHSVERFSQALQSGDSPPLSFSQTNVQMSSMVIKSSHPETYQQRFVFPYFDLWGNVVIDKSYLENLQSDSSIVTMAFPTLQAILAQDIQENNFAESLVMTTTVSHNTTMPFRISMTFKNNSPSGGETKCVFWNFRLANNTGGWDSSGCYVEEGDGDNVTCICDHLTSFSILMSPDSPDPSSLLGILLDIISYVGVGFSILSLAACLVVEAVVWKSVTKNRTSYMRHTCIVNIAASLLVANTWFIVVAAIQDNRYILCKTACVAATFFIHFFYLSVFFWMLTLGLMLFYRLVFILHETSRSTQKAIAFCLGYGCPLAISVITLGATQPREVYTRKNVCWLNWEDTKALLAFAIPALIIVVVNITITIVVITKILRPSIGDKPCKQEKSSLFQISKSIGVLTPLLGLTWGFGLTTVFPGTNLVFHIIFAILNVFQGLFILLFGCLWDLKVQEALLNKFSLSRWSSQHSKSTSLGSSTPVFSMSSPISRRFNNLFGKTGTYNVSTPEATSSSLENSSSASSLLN
The experiment in a line: flow cytometry on cells; saturation binding of FcsFNDC4 or Fc control on HEK293A cells with stable human GPR116-FLAG OE or mock cells; 4 °C, PBS with 3% FBS; anti-human IgG-PE; Kd from total binding. Conditions: one partner purified.

The target of assay [2] is T1, human GPR116 with C-terminal fused …. The experiment in a line: flow cytometry on cells; saturation binding of FcsFNDC4 or Fc control on HEK293T cells with stable human GPR116-FLAG OE or mock cells; also in excess of sFNDC4 (1 mM) for non-specific binding; 4 °C, PBS with 3% FBS; anti-human IgG-PE; Kd from specific binding. The note with it: one partner purified. Background: Flow cytometry measures light scatter and fluorescence of single cells or particles in a stream.

B1: 6xHis-Fc-sFNDC4 fusion protein (extracellular part of mouse FNDC4 fused with human IgG Fc) (Fc fusion)
chain: RPPSPVNVTVTHLRANSATVSWDVPEGNIVIGYSISQQRQNGPGQRVIREVNTTTRACALWGLAEDSDYTVQVRSIGLRGESPPGPRVHFRTLKGSDRLPSNSSSPGDITVEGLDGERPLQTGE
notes: extracellular part of mouse FNDC4 (sFNDC4), stated as aa 40-160; also called FcFNDC4; FcsF4; not shown: 6xHis, N-terminal, kept; Fc (human IgG), N-terminal, kept
B1: the Kd in assay [1] worked out at 33 ± 10 nM; in assay [2], 25 ± 5 nM.
